Assay results from patent US20030152571A1 (GlaxoSmithKline, published 2003).

What was measured:
[1] = biological target: T1, human αvβ3 receptor on cells or in tissue (human, UniProt P06756 31-1048; P05106 27-788); assay: cell-based or functional assay
[2] = biological target: rabbit αvβ3 receptor on rabbit smooth muscle cells (rabbit, UniProt A0A5F9DQF7 1-123); assay: cell-based or functional assay
[3] = biological target: T2, human vitronectin receptor αvβ3 purified from human placenta (human, UniProt P06756 31-1048; P05106 27-788); assay: BIAcore; immobilized αvβ3, mAb in solution
T2 construct: mature; Detergent-solubilised native heterodimer; also called αvβ3 receptor; human αvβ3 protein receptor
T2 sequence (P06756 31-1048, form in doubt, chain 1 of 2): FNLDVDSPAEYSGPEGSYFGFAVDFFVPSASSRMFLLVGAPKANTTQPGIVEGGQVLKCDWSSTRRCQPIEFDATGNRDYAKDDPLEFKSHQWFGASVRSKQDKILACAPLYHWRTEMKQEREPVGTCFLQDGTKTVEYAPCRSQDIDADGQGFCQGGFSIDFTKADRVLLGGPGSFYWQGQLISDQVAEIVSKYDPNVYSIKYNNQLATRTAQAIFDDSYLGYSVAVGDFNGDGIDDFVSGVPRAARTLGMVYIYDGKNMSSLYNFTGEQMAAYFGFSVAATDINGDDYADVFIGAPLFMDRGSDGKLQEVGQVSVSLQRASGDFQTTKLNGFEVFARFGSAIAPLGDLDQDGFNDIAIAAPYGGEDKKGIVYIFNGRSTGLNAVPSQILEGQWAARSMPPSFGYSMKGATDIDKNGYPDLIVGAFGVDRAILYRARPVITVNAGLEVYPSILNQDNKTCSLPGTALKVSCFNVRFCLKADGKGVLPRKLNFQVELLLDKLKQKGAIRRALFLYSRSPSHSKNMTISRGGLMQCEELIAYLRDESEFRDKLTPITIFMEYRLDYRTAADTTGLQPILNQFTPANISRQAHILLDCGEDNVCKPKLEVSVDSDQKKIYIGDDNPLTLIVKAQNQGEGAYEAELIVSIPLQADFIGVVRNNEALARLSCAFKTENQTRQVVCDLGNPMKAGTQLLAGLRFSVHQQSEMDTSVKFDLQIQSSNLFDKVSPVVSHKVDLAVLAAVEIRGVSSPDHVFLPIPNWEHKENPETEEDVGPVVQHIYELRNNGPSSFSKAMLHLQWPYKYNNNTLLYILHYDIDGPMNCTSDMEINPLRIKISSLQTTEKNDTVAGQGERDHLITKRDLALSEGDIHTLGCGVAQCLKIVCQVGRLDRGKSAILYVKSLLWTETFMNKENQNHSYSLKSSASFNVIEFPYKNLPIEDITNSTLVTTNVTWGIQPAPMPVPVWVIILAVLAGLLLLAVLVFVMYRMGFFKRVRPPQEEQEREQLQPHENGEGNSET
T2 sequence (P05106 27-788, form in doubt, chain 2 of 2): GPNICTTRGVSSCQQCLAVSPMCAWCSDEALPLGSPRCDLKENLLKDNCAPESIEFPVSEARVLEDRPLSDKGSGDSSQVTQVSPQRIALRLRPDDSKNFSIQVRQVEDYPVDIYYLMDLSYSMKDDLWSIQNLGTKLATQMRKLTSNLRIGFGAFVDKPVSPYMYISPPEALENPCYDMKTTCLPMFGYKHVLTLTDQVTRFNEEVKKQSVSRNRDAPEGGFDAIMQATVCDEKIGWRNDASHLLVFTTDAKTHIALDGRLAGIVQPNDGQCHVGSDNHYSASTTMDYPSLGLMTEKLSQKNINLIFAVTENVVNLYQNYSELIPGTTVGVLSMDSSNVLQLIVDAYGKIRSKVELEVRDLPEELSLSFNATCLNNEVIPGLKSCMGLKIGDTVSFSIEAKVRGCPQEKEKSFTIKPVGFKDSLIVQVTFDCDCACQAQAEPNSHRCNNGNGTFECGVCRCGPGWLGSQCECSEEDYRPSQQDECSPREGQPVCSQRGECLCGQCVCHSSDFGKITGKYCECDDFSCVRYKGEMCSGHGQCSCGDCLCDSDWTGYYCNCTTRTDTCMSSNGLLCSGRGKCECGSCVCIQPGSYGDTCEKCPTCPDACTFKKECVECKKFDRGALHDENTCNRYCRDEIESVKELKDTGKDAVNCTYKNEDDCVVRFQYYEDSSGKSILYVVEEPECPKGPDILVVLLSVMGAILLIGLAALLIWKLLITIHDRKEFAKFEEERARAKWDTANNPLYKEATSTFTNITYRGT
Description: (§1) The αᵥβ₃ was immobilized by inserting the αᵥβ₃ into a phospholipid vesicle and producing a hybrid bilayer membrane on a hydrophobic sensor surface. […] Samples of the mAbs were passed over this surface and the rates at which they bound and then dissociated from the surface were measured and analyzed using software provided with the instrument.

[4] = biological target: T2, human vitronectin receptor αvβ3 …; assay: not stated ('depending on the assay employed')
[5] = biological target: T1, human αvβ3 receptor on cells or in …; assay: method not stated; reference is the rabbit αvβ3 receptor
[6] = biological target: T2, human vitronectin receptor αvβ3 …; assay: BIAcore, αvβ3 immobilized in a hybrid bilayer membrane on the sensor surface, mAb in solution
Description: as §1

[7] = biological target: T2, human vitronectin receptor αvβ3 …; assay: BIAcore; αvβ3 in a hybrid bilayer membrane on the sensor, mAb at 100, 25, 6 nM in triplicate; αvβ3 immobilized in hybrid bilayer membrane on the sensor; mAb at 100, 25, 6 nM in triplicate
Description: as §1

T1 sequence (P06756 31-1048, chain 1 of 2): as the sequence (P06756 31-1048, form in doubt, chain 1 of 2) above
T1 sequence (P05106 27-788, chain 2 of 2): as the sequence (P05106 27-788, form in doubt, chain 2 of 2) above
Sequence of rabbit αvβ3 receptor on rabbit smooth muscle cells (A0A5F9DQF7 entry or part of it): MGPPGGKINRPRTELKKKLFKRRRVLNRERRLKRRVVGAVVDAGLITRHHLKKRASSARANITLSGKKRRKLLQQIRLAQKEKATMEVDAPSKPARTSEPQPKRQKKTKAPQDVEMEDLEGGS

Row | Binder | IC50 (read off the curve), adhesion of αvβ3-transfected HEK293 cells to vitronectin (O.D. 600nM) [1] | IC50, rabbit SMC migration (% control) [2] | Kd [3] | Kd [4] | fold higher affinity against human αvβ3 than against the rabbit receptor [5] | koff [6] | kon [6] | Kd [7]
1 | humanized D12 antibody HZ-D12 (IgG1) (antibody, V domains shown, also called HuD12; D12HZHC 1-0 / D12HZLC 1-0) VH: QVQLVQSGAEVKKPGASVKVSCKASGYAFTSYNMYWVRQAPGQGLEWIGYIDPYNGDTFYNQKFKGKATLTVDKSTSTAYMELSSLRSEDTAVYYCARQNYGSFAYWGQGTLVTVSS VL: DIVLTQSPGTLSLSPGERATLSCRASQSISNHLHWYQQKPGQAPRLLIKYASQSISGIPSRFSGSGSGTDFTLTISRLEPEDFAVYYCQQSNSWPFTFGQGTKVEIK | ~0.1 µg/mL | 42 µg/mL | 1 nM | – | – | – | – | –
2 | humanized D12 antibody HZ-D12 (IgG4) (antibody, V domains shown) VH: QVQLVQSGAEVKKPGASVKVSCKASGYAFTSYNMYWVRQAPGQGLEWIGYIDPYNGDTFYNQKFKGKATLTVDKSTSTAYMELSSLRSEDTAVYYCARQNYGSFAYWGQGTLVTVSS VL: DIVLTQSPGTLSLSPGERATLSCRASQSISNHLHWYQQKPGQAPRLLIKYASQSISGIPSRFSGSGSGTDFTLTISRLEPEDFAVYYCQQSNSWPFTFGQGTKVEIK | – | – | 1.1 nM | – | – | – | – | –
3 | murine monoclonal antibody D12 (antibody, V domains shown, also called mAb D12; murine D12) VH: EIQLQQSGPEVVKPGASVKVSCKASGYAFTSYNMYWVKQSHGKSLEWIGYIDPYNGDTFYNQKFKGKATLTVDKSSSTAYMHLNSLTSEDSAVFYCARQNYGSFAYWGQGTLVTVSA VL: DIVLTQSPATLSVTPGDSVSLSCRASQSISNHLHWYQQRSHESPRLLIKYASQSISGIPSRFRGSGSGTDFTLNINILETEDFGMYFCQQSNSWPFTFGSGTNLEIKR | – | 18 µg/mL | 1.3 nM | 1 to 3 nM | 10 fold | 0.00041 s⁻¹ | 770000 M⁻¹ s⁻¹ | 0.53 nM
